# Results reported in patent publication US20260166131A1, “METHOD FOR PROMOTING PATHOLOGICAL TDP-43 PROTEIN DEGRADATION, AND DRUG” (TALENGEN INTERNATIONAL LIMITED, priority 2022, published 2026).
# Entries after “also recorded” stand apart in the source; their conditions may differ.
# Key:
# [1] = system: TDP-43; assay: TDP-43 in brain tissue of mice injected with TDP-43 in the brain and LPS (Western blot); type: in vivo; conditions: C57BL/6J mice, hippocampal TDP-43 injection + LPS, 50 mg/kg tail vein for 3 days, vs vehicle group, P<0.05
# Description: Nine C57BL/6J female mice aged 6-7 weeks were selected and weighed before modeling. After weighing, all mice were randomly divided into two groups: 3 mice in blank control group, and 6 mice in model group. After grouping, mice in the sham operation group and model group were anesthetized with intraperitoneal injection of tribromoethanol at a dose of 20 mL/kg. Model mice were located in the hippocampus according to the mouse stereotaxic atlas (based on the coordinates of the bregma: AP-2.54 mm, ML±2 mm, DV-2.4 mm), and each mouse was slowly microinjected bilaterally. Mice in the sham operation group were only drilled at the coordinate location point without injection. The mice in the model group were injected with TDP-43 solution at an injection rate of 0.5 μL/min and an injection volume of 3 μL/side. After the injection, the syringe stayed for 5 minutes and then slowly withdrew. Three days after the brain localization injection, all mice were weighed, and the mice in the model group were intraperitoneally injected with 5 mg/kg LPS solution according to their body weight. Then the mice in the model group were randomly divided into two groups: 3 mice in the plasminogen group and 3 mice in the vehicle group. […] The vehicle and plasminogen were administered continuously for 3 days. […] After homogenization, TDP-43 was detected by western blot.
# [2] = Brain tissue plasminogen level after tail vein injection in FAD mice (ELISA)
# [3] = target: TDP-43 (Mus musculus, UniProt Q921F2); assay: Immunofluorescence co-localization staining of plasminogen and TDP-43 in spinal cord tissue of SOD1-G93A mice; type: in vivo; design: from tissue; host or cells: mouse spinal cord, gluteal muscle, brain, kidney cell nuclei; conditions: 1 mg/mouse tail vein every day
# Description: Five wild-type male mice and nine male SOD1-G93A mice of similar week-age were selected. Wild-type mice served as the blank control group, and SOD1-G93A mice were observed and recorded from the time of hind leg tremor when they became ill at week 14, and the onset time of each mouse was recorded. Administering to mice 14 days after the onset of the disease. All mice were randomly divided into a vehicle group and a plasminogen group according to the onset of the disease: 5 mice in the vehicle group, which were injected with 0.1 ml of vehicle (sodium citrate buffer)/mouse by tail vein every day; 4 mice in the plasminogen group, which were injected with 1 mg of plasminogen/0.1 ml of vehicle/mouse by tail vein every day. The vehicle and plasminogen were administered continuously under SPF environment, and the samples were collected at the near-death stage. The longest administration was 61 days. The spinal cord tissue collected was fixed in formalin fixative solution. The fixed tissues were dehydrated with gradient alcohol and transparentized with xylene before being embedded in paraffin. The thickness of tissue sections was 3 μm, and the sections were dewaxed and rehydrated and then washed once. The sections were immersed in antigen retrieval working solution (0.01 M sodium citrate buffer) to perform microwave retrieval: preheating for 5 minutes, high heating for 2 minutes, and low heating for 15 minutes. The tissue was circled with a PAP pen, then incubating in 3% hydrogen peroxide for 15 minutes, and washing twice with 0.01 M PBS for 5 minutes each time, blocking with 5% normal goat serum (Vector laboratories, Inc., USA) for 30 minutes. After the time for blocking is up, the goat serum is discarded, adding anti-plasminogen antibody (self-produced), then incubating at 4° C. overnight, and washing twice with 0.01M PBS for 5 minutes each time. The goat anti-rabbit IgG (HRP) antibody (Abcam) secondary antibody was added to incubate at room temperature for 1 hour, then washing twice with 0.01M PBS for 5 minutes each time. The green fluorescence color development of the corresponding anti-plasminogen secondary antibody was performed according to the instructions of the XTSA520 IHC kit (Alpha X Biotech, AXT6202500), washing 3 times with PBS for 5 minutes each time. The above antigen retrieval and blocking procedures were repeated, and then anti-TDP-43 antibody (Proteintech, 12892-1-AP) staining was performed, then incubating at 37° C. for 1 hour, washing 3 times with PBS for 5 minutes each time. […] The red fluorescence color development of the corresponding anti-TDP-43 secondary antibody was performed according to the instructions of the XTSA620 IHC kit (Alpha X Biotech, AXT6502500), washing 3 times with PBS for 5 minutes each time. […]
# [4] = system: NSC34 cells; assay: Plasmin activity in cytoplasm and nucleus of okadaic acid-treated NSC34 cells (enzyme substrate kinetic method, S-2251); type: cell-based; conditions: plasminogen 0.5 mg/mL 24 hours, vs vehicle group
# Description: The cells were placed in a carbon dioxide incubator for culture at 37.0° C. and 5% CO2. […] After adding plasminogen for 24 hours, the cells were harvested. […] The supernatant is the extracted cytoplasmic protein, and the supernatant is immediately sucked up into a pre-cooled sample tube for later use. The precipitate is the cell nucleus, and the remaining supernatant was completely aspirated (to avoid contamination by cytoplasmic proteins), then adding 50-100 μL of nuclear protein extraction reagent. The precipitate is completely dispersed by pipette blow or high-speed vortex for 15 seconds (can be extended appropriately), then ice-bathing for 10 minutes, vortexing vigorously at maximum speed for 10 seconds and centrifuging at 12,000-16,000 g for 10 minutes at 4° C. The supernatant was immediately sucked up by pipette into a pre-cooled sample tube; this is the extracted nuclear protein.
# [5] = Human plasminogen level in nuclei of brain, spinal cord and kidney tissue of SOD1-G93A mice (ELISA); type: in vivo, mouse; conditions: 50 mg/kg tail vein every day, 7 days, vs vehicle group, P<0.001
# Description: Ten 9-week-age SOD1-G93A mice were randomly divided into two groups: a vehicle group and a plasminogen group, with 5 mice in each group. Five C57 mice of the same week-age were selected as normal control mice. […] The vehicle and plasminogen were administered continuously for 7 days. The mice were killed 7 days later, and brain, spinal cord and kidney tissues were collected. The tissue was cut into small pieces to digest with 0.25% trypsin (Beyotime Biotechnology, C0201-500 mL), then filtering with a 200-mesh cell sieve to obtain a single cell suspension. […] The extracted nuclear protein was tested for human plasminogen level by ELISA.
# TDP-43 (Mus musculus, UniProt Q921F2), sequence (Q921F2 whole entry): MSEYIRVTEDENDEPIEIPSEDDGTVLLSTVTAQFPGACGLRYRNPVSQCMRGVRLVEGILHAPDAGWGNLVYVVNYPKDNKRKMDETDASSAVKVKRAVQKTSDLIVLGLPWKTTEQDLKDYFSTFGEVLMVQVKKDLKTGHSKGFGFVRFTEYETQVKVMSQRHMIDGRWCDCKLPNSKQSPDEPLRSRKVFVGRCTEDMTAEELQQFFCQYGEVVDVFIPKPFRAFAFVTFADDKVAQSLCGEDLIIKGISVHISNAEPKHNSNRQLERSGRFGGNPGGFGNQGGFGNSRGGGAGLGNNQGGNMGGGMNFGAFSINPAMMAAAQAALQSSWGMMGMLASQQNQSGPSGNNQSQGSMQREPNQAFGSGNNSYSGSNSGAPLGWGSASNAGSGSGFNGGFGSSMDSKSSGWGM
molecule,measurement,setting,value
"plasminogen: human plasminogen purified from human donor plasma, in which human Lys-plasminogen and Glu-plasminogen are >98% (protein) KVYLSECKTGNGKNYRGTMSKTKNGITCQKWSSTSPHRPRFSPATHPSEGLEENYCRNPDNDPQGPWCYTTDPEKRYDYCDILECEEECMHCSGENYDGKISKTMSGLECQAWDSQSPHAHGYIPSKFPNKNLKKNYCRNPDRELRPWCFTTDPNKRWELCDIPRCTTPPPSSGPTYQCLKGTGENYRGNVAVTVSGHTCQHWSAQTPHTHNRTPENFPCKNLDENYCRNPDGKRAPWCHTTNSQVRWEYCKIPSCDSSPVSTEQLAPTAPPELTPVVQDCYHGDGQSYRGTSSTTTTGKKCQSWSSMTPHRHQKTPENYPNAGLTMNYCRNPDADKGPWCFTTDPSVRWEYCNLKKCSGTEASVVAPPPVVLLPDVETPSEEDCMFGNGKGYRGKRATTVTGTPCQDWAAQEPHRHSIFTPETNPRAGLEKNYCRNPDGDVGGPWCYTTNPRKLYDYCDVPQCAAPSFDCGKPQVEPKKCPGRVVGGCVAHPHSWPWQVSLRTRFGMHFCGGTLISPEWVLTAAHCLEKSPRPSSYKVILGAHQEVNLEPHVQEIEVSRLFLEPTRKDIALLKLSSPAVITDKVIPACLPSPNYVVADRTECFITGWGETQGTFGAGLLKEAQLPVIENKVCNRYEFLNGRVQSTELCAGHLAGGTDSCQGDSGGPLVCFEKDKYILQGVTSWGLGCARPNKPGVYVRVSRFVTWIEGVMRNN",amount of TDP-43 monomer in brain tissue,[1],significantly lower
same,amount of low molecular weight TDP-43 in brain tissue,[1],significantly lower
same,ratio of plasminogen in brain tissue to plasminogen in blood,"[2]; 6 mg/kg plasminogen group, 2 hours",3.59%
same,ratio of plasminogen in brain tissue to plasminogen in blood,"[2]; 6 mg/kg plasminogen group, 6 hours",4.23%
same,ratio of plasminogen in brain tissue to plasminogen in blood,"[2]; 50 mg/kg plasminogen group, 2 hours",2.49%
same,ratio of plasminogen in brain tissue to plasminogen in blood,"[2]; 50 mg/kg plasminogen group, 6 hours",2.31%
same,ratio of plasminogen in brain tissue to plasminogen in blood,"[2]; 50 mg/kg plasminogen group, 12 hours",3.32%
same,"plasminogen level in brain tissue, 50 mg/kg group compared with 6 mg/kg group",[2]; tail vein,significantly higher
same,time within which plasminogen is almost completely metabolized (brain tissue),[2]; tail vein 50 mg/kg and 6 mg/kg,12 to 24 h
same,plasminogen level in brain tissue,[2]; tail vein injection of 6 mg/kg,increase significantly
same,plasminogen level in brain tissue,[2]; tail vein injection of 50 mg/kg,increase significantly
same,subcellular presence of plasminogen in spinal cord tissue,[3],present in the cytoplasm (as indicated by A) and in the nucleus; also recorded: present in the cytoplasm (as indicated by Δ) and in the nucleus
same,level of TDP-43 in spinal cord tissue,"[3]; immunofluorescence, vs vehicle group",lower than that in the vehicle group; also recorded: lower than that of the vehicle group
same,positive staining of plasminogen in spinal cord tissue,"[3]; up to 61 days, vs vehicle group",significantly more
same,co-localization of plasminogen and TDP-43 in spinal cord tissue,[3]; vs vehicle group,more than that in the vehicle group
same,level of plasmin activity in the cytoplasm,[4],significantly higher
same,level of plasmin activity in the nucleus,[4],significantly higher
same,level of human plasminogen in the nuclei of brain tissue,[5],significantly higher
same,level of human plasminogen in the nuclei of kidney tissue,[5],significantly higher
same,level of human plasminogen in the nuclei of spinal cord tissue,[5],significantly higher
